The values below come from patent publication US20190270826A1 (Janssen / Centocor, published 2019).

The Kd is the free concentration of one partner at which half of the binding sites on the other are occupied at equilibrium, for simple one-to-one binding. By koff is commonly meant a measure of how fast the partners let go of each other. The kon is a measure of how fast the partners come together.

In test [1] the target is T1, recombinant human IL1RAP ECD (human, UniProt Q9NPH3 21-367).
T1 construct: His-tagged; also called hIL1RAP-ECD; rhuIL1RAP
T1 sequence: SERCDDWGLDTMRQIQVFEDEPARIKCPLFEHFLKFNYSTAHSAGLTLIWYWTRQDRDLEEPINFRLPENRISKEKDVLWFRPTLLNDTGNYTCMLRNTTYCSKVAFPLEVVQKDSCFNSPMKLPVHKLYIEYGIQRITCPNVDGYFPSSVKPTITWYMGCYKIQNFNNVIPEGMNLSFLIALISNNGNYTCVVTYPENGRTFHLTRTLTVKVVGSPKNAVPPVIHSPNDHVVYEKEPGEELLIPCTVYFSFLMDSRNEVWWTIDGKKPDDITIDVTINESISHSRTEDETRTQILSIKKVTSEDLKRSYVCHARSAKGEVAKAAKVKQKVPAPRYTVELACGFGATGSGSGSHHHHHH
Put plainly: SPR (ProteOn). As for the experimental part:
The rates of IL1RAP ECD association and dissociation were measured for each variant. The biosensor surface was prepared by covalently coupling Goat anti-Human IgG (Fc) to the surface of a GLC chip (BioRad) using the manufacturer instructions for amine-coupling chemistry. […] The RU immobilized also included a goat anti-mouse Fc antibody that was added to capture other antibodies not included in the ones reported here. Since the mixture was 1:1 about 50% of these RU immobilized are expected to be goat anti-human Fc. The kinetic experiments were performed at 25° C. in running buffer (PBS pH 7.4, 0.005% P20, 3 mM EDTA). […] (1:3) serial dilutions of human IL1RAP ECD, starting at 400 nM were prepared in running buffer. […] The reference spots (Goat anti-Human IgG (Fc)-modified surface) containing no candidate captured were used as a reference surface. Capture of mAb was followed by a 3 minute injection (association phase) of antigen at 40 μL/min, followed by 10 minutes of buffer flow (dissociation phase). […] Data was processed on the instrument software. Double reference subtraction of the data was performed by subtracting the curves generated by buffer injection from the reference-subtracted curves for analyte injections. Kinetic analysis of the data was performed using 1:1 Langmuir binding model with group fit.

The target in test [2] is T2, recombinant cyno IL1RAP ECD (cynomolgus monkey, UniProt P59822 21-367 (rhesus entry)).
T2 construct: also called rcynoIL1RAP
T2 sequence: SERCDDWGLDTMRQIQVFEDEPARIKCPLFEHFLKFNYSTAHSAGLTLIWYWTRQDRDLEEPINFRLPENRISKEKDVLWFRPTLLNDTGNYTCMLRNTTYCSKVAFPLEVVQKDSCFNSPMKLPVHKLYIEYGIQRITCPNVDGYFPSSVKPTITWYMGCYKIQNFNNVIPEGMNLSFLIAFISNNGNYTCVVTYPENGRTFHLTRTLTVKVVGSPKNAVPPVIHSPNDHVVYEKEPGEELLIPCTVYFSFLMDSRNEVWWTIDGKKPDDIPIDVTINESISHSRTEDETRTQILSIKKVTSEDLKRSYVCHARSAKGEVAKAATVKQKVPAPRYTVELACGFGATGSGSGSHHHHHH
Description: SPR.

Test [3] has as its target T2, recombinant cyno IL1RAP ECD. Description: SPR. The source holds these as a separate data set. (In general: SPR reads the build-up and loss of mass on a sensor chip optically.)
For test [4], the target named is T1, recombinant human IL1RAP ECD. Description: SPR.
Test [5] has as its target T3, human IL1RAP on cells (endogenous) (human, UniProt Q9NPH3 21-570).
T3 sequence (looked up): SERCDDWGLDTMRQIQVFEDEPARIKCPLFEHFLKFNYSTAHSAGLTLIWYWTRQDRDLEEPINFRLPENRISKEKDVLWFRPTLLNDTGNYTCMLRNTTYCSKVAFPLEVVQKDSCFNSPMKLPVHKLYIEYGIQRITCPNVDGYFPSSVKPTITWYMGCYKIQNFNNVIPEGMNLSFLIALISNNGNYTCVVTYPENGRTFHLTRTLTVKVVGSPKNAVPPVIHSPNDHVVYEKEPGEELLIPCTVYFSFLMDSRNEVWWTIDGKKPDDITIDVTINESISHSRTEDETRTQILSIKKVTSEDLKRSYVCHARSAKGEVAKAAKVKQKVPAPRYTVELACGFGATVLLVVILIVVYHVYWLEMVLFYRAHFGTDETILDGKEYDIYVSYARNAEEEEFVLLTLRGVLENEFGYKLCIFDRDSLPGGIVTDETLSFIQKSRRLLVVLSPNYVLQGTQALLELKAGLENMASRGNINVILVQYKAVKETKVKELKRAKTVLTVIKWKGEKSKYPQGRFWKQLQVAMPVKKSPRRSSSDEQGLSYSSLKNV
Description: cell-based or functional assay.

Test [6] concerns the target T2, recombinant cyno IL1RAP ECD. Put plainly: SPR, summary.
The target of test [7] is T1, recombinant human IL1RAP ECD. Description: SPR, summary.
For test [8] the target is unchanged. Description: SPR; human KD over cyno KD.
Test [9] has the same target. Put plainly: SPR. The source holds these as a separate data set.

B1: IAPB55, 22A09 (hybridoma mAb, unpurified) (antibody, V domains shown)
VH: QLQLQESGPGLVKPSETLSLTCTVSGVSISSSTYYWGWLRQPPGMGLEWTGSIYFTGNTYYNPSLKSRVTISVDTSRNQFSLKLSSVTAADTAVYYCGSLFGDYGYFDYWGQGTLVTVSS
VL: EIVMTQSPATLSVSPGERATLSCRASQFISSNLAWYQQKPGQAPRLLIYGASTRATGIPARFSGSGSGTDFTLTISSLQSEDFAVYYCQQYNNWPFTFGPGTKVDIK
notes: OmniRat hybridoma product (rat constant region)
In the case of B1, in test [1], the Kd turned out to be 1.64 nM, the koff was 0.000747 s⁻¹ and the kon worked out at 454000 M⁻¹ s⁻¹.

B2: IAPB61, 25D12 (hybridoma mAb, unpurified) (antibody, V domains shown)
VH: QLQLQESGPGLVKPSETLSLTCTVSGVSISSSTYYWGWLRQPPGMGLEWTGSIYFTGNTYYNPSLKSRVTISVDTSRNQFSLKLSSVTAADTAVYYCGSLFGDYGYFDYWGQGTLVTVSS
VL: EIVMTQSPATLSVPPGERATLSCRASQFISSNLAWYQQKPGQAPRLLIYGASTRATGIPARFSGSGSGTDFTLTISSLQSEDFAVYYCQQYNNWPSTFGPGTKVDIK
notes: as for B1
For B2, in [1], the Kd was 17.5 nM, the koff was determined as 0.0142 s⁻¹ and the kon was found to be 810000 M⁻¹ s⁻¹.

B3: IC3B1 (bispecific antibody, human IgG4 S228P, kappa, lambda, F234A L235A)
heavy 1: EVQLVESGGGLVQPGGSLKLSCAASGFTFNTYAMNWVRQASGKGLEWVGRIRSKYNAYATYYAASVKGRFTISRDDSKNTAYLQMNSLKTEDTAVYYCTRHGNFGNSYVSWFAYWGQGTLVTVSSASTKGPSVFPLAPCSRSTSESTAALGCLVKDYFPEPVTVSWNSGALTSGVHTFPAVLQSSGLYSLSSVVTVPSSSLGTKTYTCNVDHKPSNTKVDKRVESKYGPPCPPCPAPEAAGGPSVFLFPPKPKDTLMISRTPEVTCVVVDVSQEDPEVQFNWYVDGVEVHNAKTKPREEQFNSTYRVVSVLTVLHQDWLNGKEYKCKVSNKGLPSSIEKTISKAKGQPREPQVYTLPPSQEEMTKNQVSLTCLVKGFYPSDIAVEWESNGQPENNYKTTPPVLDSDGSFLLYSKLTVDKSRWQEGNVFSCSVMHEALHNHYTQKSLSLSLGK
light 1: QAVVTQEPSLTVSPGGTVTLTCRSSTGAVTTSNYANWVQQKPGQAPRGLIGGTNKRAPGTPARFSGSLLGGKAALTLSGAQPEDEAEYYCALWYSNLWVFGGGTKLTVLGQPKAAPSVTLFPPSSEELQANKATLVCLISDFYPGAVTVAWKADSSPVKAGVETTTPSKQSNNKYAASSYLSLTPEQWKSHRSYSCQVTHEGSTVEKTVAPTECS
heavy 2: not shown
light 2: EIVLTQSPGTLSLSPGERATLSCRASQSISNDLNWYQQKPGKAPKLLIYYASSLQSGVPSRFSGSGSGTDFTLTINSLQPEDFATYYCQQSFTAPLTFGQGTKVEIKRTVAAPSVFIFPPSDEQLKSGTASVVCLLNNFYPREAKVQWKVDNALQSGNSQESVTEQDSKDSTYSLSSTLTLSKADYEKHKVYACEVTHQGLSSPVTKSFNRGEC
notes: IgG4-PAA, Fab arm exchange; also called IAPB47 x CD3B220
As for B3, the Kd amounted to 0.212 nM in test [2]; 0.212 nM in test [3]; 1.09 nM in [4]; 0.212 nM in [6]; 1.09 nM in test [7]; 1.09 nM in [9]. The koff in [2] was 0.000236 s⁻¹; in test [9], 0.000759 s⁻¹. For the same molecule, the kon in [2] worked out at 1.11e+06 M⁻¹ s⁻¹; in [9], 697000 M⁻¹ s⁻¹. Moreover, in [5], the “EC50, T-cell mediated cytotoxicity” value was 0.049 nM. Also, in [8], the “Hu/Cyno KD Ratio” value is 5.1.

B4: IC3B9 (bispecific antibody, human IgG4 S228P, kappa, lambda, F234A L235A)
heavy 1: EVQLVESGGGLVQPGGSLKLSCAASGFTFNTYAMNWVRQASGKGLEWVGRIRSKYNAYATYYAASVKGRFTISRDDSKNTAYLQMNSLKTEDTAVYYCTRHGNFGNSYVSWFAYWGQGTLVTVSSASTKGPSVFPLAPCSRSTSESTAALGCLVKDYFPEPVTVSWNSGALTSGVHTFPAVLQSSGLYSLSSVVTVPSSSLGTKTYTCNVDHKPSNTKVDKRVESKYGPPCPPCPAPEAAGGPSVFLFPPKPKDTLMISRTPEVTCVVVDVSQEDPEVQFNWYVDGVEVHNAKTKPREEQFNSTYRVVSVLTVLHQDWLNGKEYKCKVSNKGLPSSIEKTISKAKGQPREPQVYTLPPSQEEMTKNQVSLTCLVKGFYPSDIAVEWESNGQPENNYKTTPPVLDSDGSFLLYSKLTVDKSRWQEGNVFSCSVMHEALHNHYTQKSLSLSLGK
light 1: QAVVTQEPSLTVSPGGTVTLTCRSSTGAVTTSNYANWVQQKPGQAPRGLIGGTNKRAPGTPARFSGSLLGGKAALTLSGAQPEDEAEYYCALWYSNLWVFGGGTKLTVLGQPKAAPSVTLFPPSSEELQANKATLVCLISDFYPGAVTVAWKADSSPVKAGVETTTPSKQSNNKYAASSYLSLTPEQWKSHRSYSCQVTHEGSTVEKTVAPTECS
heavy 2: not shown
light 2: not shown
notes: IgG4-PAA, Fab arm exchange; also called IAPB25 x CD3B220
Consider B4, for which the Kd turned out to be 27.8 nM in test [2]; 27.8 nM in test [3]; 29.7 nM in test [4]; 27.8 nM in test [6]; 29.7 nM in [7]; 29.7 nM in [9]. Besides, the values for the koff in test [2] and in [9] were 0.053 s⁻¹ and 0.0547 s⁻¹, respectively. Further, the results for the kon in test [2] and in test [9] were 1.91e+06 M⁻¹ s⁻¹ and 1.84e+06 M⁻¹ s⁻¹, respectively. In addition, in test [8], the “Hu/Cyno KD Ratio” value is 1.1.

B5: IC3B4 (bispecific antibody, human IgG4 S228P, kappa, lambda, F234A L235A)
heavy 1: EVQLVESGGGLVQPGGSLKLSCAASGFTFNTYAMNWVRQASGKGLEWVGRIRSKYNAYATYYAASVKGRFTISRDDSKNTAYLQMNSLKTEDTAVYYCTRHGNFGNSYVSWFAYWGQGTLVTVSSASTKGPSVFPLAPCSRSTSESTAALGCLVKDYFPEPVTVSWNSGALTSGVHTFPAVLQSSGLYSLSSVVTVPSSSLGTKTYTCNVDHKPSNTKVDKRVESKYGPPCPPCPAPEAAGGPSVFLFPPKPKDTLMISRTPEVTCVVVDVSQEDPEVQFNWYVDGVEVHNAKTKPREEQFNSTYRVVSVLTVLHQDWLNGKEYKCKVSNKGLPSSIEKTISKAKGQPREPQVYTLPPSQEEMTKNQVSLTCLVKGFYPSDIAVEWESNGQPENNYKTTPPVLDSDGSFLLYSKLTVDKSRWQEGNVFSCSVMHEALHNHYTQKSLSLSLGK
light 1: QAVVTQEPSLTVSPGGTVTLTCRSSTGAVTTSNYANWVQQKPGQAPRGLIGGTNKRAPGTPARFSGSLLGGKAALTLSGAQPEDEAEYYCALWYSNLWVFGGGTKLTVLGQPKAAPSVTLFPPSSEELQANKATLVCLISDFYPGAVTVAWKADSSPVKAGVETTTPSKQSNNKYAASSYLSLTPEQWKSHRSYSCQVTHEGSTVEKTVAPTECS
heavy 2: not shown
light 2: not shown
notes: IgG4-PAA, Fab arm exchange; also called IAPB61 x CD3B220
For the molecule B5, the Kd in [2] was determined as 10.2 nM; in test [3] it was 10.2 nM; in test [4], 11.2 nM; in test [6], 10.2 nM; in test [7], 11.2 nM; in test [9], 11.2 nM. Further, the koff is 0.0148 s⁻¹ in [2] and 0.0129 s⁻¹ in [9]. Besides, the on-rate (kon) in [2] was 1.46e+06 M⁻¹ s⁻¹; in test [9] it was 1.15e+06 M⁻¹ s⁻¹. Moreover, the “Hu/Cyno KD Ratio” value in test [8] worked out at 1.1.

B6: IAPB57, 5G08 (hybridoma mAb, unpurified) (antibody, V domains shown)
VH: QLQLQESGPGLVKPSETLSLTCTVSGGSISSSTYYWGWIRQPPGKGLEWIGSIYFTGSTDYNPSLKSRVSISVDTSKNQFSLKLSSVTAADTAVYYCAKEDDSSGYYSFDYWGQGNLVTVSS
VL: DIQLTQSPSFLSASVGDRVTITCRASQGISSYLAWYQQKPGKAPKLLIYAASTLQSGVPSRFSGSGSGTEFTLTISSLQPEDFATYYCQQVNSYPLTFGGGTKVEIK
notes: as for B1
As to B6, in [1], the Kd is 0.16 nM, the koff was 0.000129 s⁻¹ and the kon was found to be 807000 M⁻¹ s⁻¹.
